The target in test [1] is T1, recombinant human IL-1β (human, UniProt P01584 117-269). Kind of test: cell-based or functional assay.
Test [2] has as its target T2, recombinant human IL-1α (human, UniProt P01583 113-271).
T2 sequence: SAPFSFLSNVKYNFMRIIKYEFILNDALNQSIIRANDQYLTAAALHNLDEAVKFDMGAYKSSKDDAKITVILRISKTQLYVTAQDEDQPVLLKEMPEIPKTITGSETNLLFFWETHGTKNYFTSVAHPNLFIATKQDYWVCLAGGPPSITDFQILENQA
Kind of test: cell-based or functional assay.

Test [3] deals with T1, recombinant human IL-1β. The test is described as follows: SPR (Biacore). In general terms: Surface plasmon resonance follows binding to a sensor surface in real time, without labels.
Test [4] concerns the target T2, recombinant human IL-1α. The test is described as follows: SPR (Biacore).
Test [5] deals with T1, recombinant human IL-1β. Kind of test: cell-based or functional assay. The source holds these as a separate data set.
For test [6], the target named is T1, recombinant human IL-1β. Kind of test: SPR (Biacore), mAb captured via goat anti-mouse IgG.

Experimental findings from US20120201781A1 (AbbVie / Abbott, published 2012) are described below.

Broadly, the Kd is the equilibrium constant for the complex coming apart.

B1: hIL-1α/β DVD4b-Ig (bispecific antibody, human IgG1, kappa)
heavy: not shown
light: ETTVTQSPASLSMAIGEKVTIRCITSTDIDVDMNWYQQKPGEPPKLLISQGNTLRPGVPSRFSSSGSGTDFVFIIENMLSEDVADYYCLQSDNLPLTFGAGTKLELKRTVAAPSVFIFPPDIVMTQSQRFMSTSVGDRVSVTCKASQNVGTNIAWYQQKPGQSPRALIYSASYRYSGVPDRFTGSGSGTDFTLTISNVQSVDLAEYFCQQYTRYPLTFGGGTKLEIKRTVAAPSVFIFPPSDEQLKSGTASVVCLLNNFYPREAKVQWKVDNALQSGNSQESVTEQDSKDSTYSLSSTLTLSKADYEKHKVYACEVTHQGLSSPVTKSFNRGEC
notes: 1B12.4H4 (outer) - long linker - 18F4.2C8 (inner), b-a-C orientation
With B1, the “Potency (IC50) M, MRC-5 bioassay” value was found to be 500 pM with recombinant human IL-1β [1] and 350 pM with recombinant human IL-1α [2]. Moreover, the equilibrium dissociation constant (Kd) came to 0.128 nM with recombinant human IL-1β [3] and 0.56 nM with recombinant human IL-1α [4].

B2: hIL-1α/β DVD3b-Ig (bispecific antibody, human IgG1, kappa)
heavy: not shown
light: ETTVTQSPASLSMAIGEKVTIRCITSTDIDVDMNWYQQKPGEPPKLLISQGNTLRPGVPSRFSSSGSGTDFVFIIENMLSEDVADYYCLQSDNLPLTFGAGTKLELKRTVAAPDIVMTQSQRFMSTSVGDRVSVTCKASQNVGTNIAWYQQKPGQSPRALIYSASYRYSGVPDRFTGSGSGTDFTLTISNVQSVDLAEYFCQQYTRYPLTFGGGTKLEIKRTVAAPSVFIFPPSDEQLKSGTASVVCLLNNFYPREAKVQWKVDNALQSGNSQESVTEQDSKDSTYSLSSTLTLSKADYEKHKVYACEVTHQGLSSPVTKSFNRGEC
notes: 1B12.4H4 (outer) - short linker - 18F4.2C8 (inner), b-a-C orientation
For B2, the “Potency (IC50) M, MRC-5 bioassay” value with recombinant human IL-1β [1] worked out at 400 pM; with recombinant human IL-1α [2], 700 pM. Moreover, the figures for the equilibrium dissociation constant (Kd) in the test with recombinant human IL-1β [3] and in the test with recombinant human IL-1α [4] were 0.19 nM and 1.24 nM, respectively.

B3: hIL-1α/β DVD5b-Ig (bispecific antibody, human IgG1, kappa)
heavy: not shown
light: QIVLTQSPAIMSASPGEKVTITCSASSSVSYMHWFQQKPGASPKLWIYSTSNLASGVPARFSGSGSGTSYSLTVSRMEAEDAATYYCQQRSTYPYTFGGGTKLEIKRTVAAPQIVLTQSPALMSASPGEKVTMTCSASSSVNYMYWYQQKPRSSPKPWIYLTSNLASGVPARFSGSGSGTSYSLTISSMEAEDAATYYCQQWNSNPYTFGGGTKLEMKRTVAAPSVFIFPPSDEQLKSGTASVVCLLNNFYPREAKVQWKVDNALQSGNSQESVTEQDSKDSTYSLSSTLTLSKADYEKHKVYACEVTHQGLSSPVTKSFNRGEC
notes: 6B12.4F6 (outer) - short linker - 6H3.1A4.3E11 (inner), b-a-C orientation
In the case of B3, the “Potency (IC50) M, MRC-5 bioassay” value in the test with recombinant human IL-1β [1] turned out to be 250 pM; with recombinant human IL-1α [2], 3300 pM. Also, the Kd with recombinant human IL-1β [3] was 0.671 nM; with recombinant human IL-1α [4], 13.2 nM.

B4: hIL-1α/β DVD4a-Ig (bispecific antibody, human IgG1, kappa)
heavy: not shown
light: DIVMTQSQRFMSTSVGDRVSVTCKASQNVGTNIAWYQQKPGQSPRALIYSASYRYSGVPDRFTGSGSGTDFTLTISNVQSVDLAEYFCQQYTRYPLTFGGGTKLEIKRTVAAPSVFIFPPETTVTQSPASLSMAIGEKVTIRCITSTDIDVDMNWYQQKPGEPPKLLISQGNTLRPGVPSRFSSSGSGTDFVFIIENMLSEDVADYYCLQSDNLPLTFGAGTKLELKRTVAAPSVFIFPPSDEQLKSGTASVVCLLNNFYPREAKVQWKVDNALQSGNSQESVTEQDSKDSTYSLSSTLTLSKADYEKHKVYACEVTHQGLSSPVTKSFNRGEC
notes: 18F4.2C8 (outer) - long linker - 1B12.4H4 (inner), a-b-C orientation
For the molecule B4, the “Potency (IC50) M, MRC-5 bioassay” value with recombinant human IL-1β [1] worked out at 10000 pM; in the test with recombinant human IL-1α [2], 350 pM. In addition, the dissociation constant (Kd) with recombinant human IL-1β [3] is 0.93 nM; with recombinant human IL-1α [4] it was 0.701 nM.

B5: murine monoclonal antibody 6B12.4F6 (antibody, V domains shown)
VH: EVQLQQSGPELVKTGTSVKISCKASGYSFTGYYMHWVRQSHGKSLEWIGYISCYNGFTSYNPKFKGKATFTVDTSSSTAYIQFSRLTSEDSAVYYCARSDYYGTNDYWGQGTTLTVSS
VL: QIVLTQSPAIMSASPGEKVTITCSASSSVSYMHWFQQKPGASPKLWIYSTSNLASGVPARFSGSGSGTSYSLTVSRMEAEDAATYYCQQRSTYPYTFGGGTKLEIKR
notes: Murine hybridoma mAb, anti-hIL-1β
On to B5, for which the “IC50 (M), MRC-5 bioassay” value in the test with recombinant human IL-1β [1] was found to be 4e-10 M. In addition, the “IC50 (M), MRC-5 bioassay (inhibition of IL-8 production)” value with recombinant human IL-1β [5] was found to be 3.2e-10 M. The dissociation constant Kd with recombinant human IL-1β [6] and in the test with recombinant human IL-1β [3] was 0.554 nM in each case.

B6: hIL-1α/β DVD3a-Ig (bispecific antibody, human IgG1, kappa)
heavy: not shown
light: DIVMTQSQRFMSTSVGDRVSVTCKASQNVGTNIAWYQQKPGQSPRALIYSASYRYSGVPDRFTGSGSGTDFTLTISNVQSVDLAEYFCQQYTRYPLTFGGGTKLEIKRTVAAPETTVTQSPASLSMAIGEKVTIRCITSTDIDVDMNWYQQKPGEPPKLLISQGNTLRPGVPSRFSSSGSGTDFVFIIENMLSEDVADYYCLQSDNLPLTFGAGTKLELKRRTVAAPSVFIFPPSDEQLKSGTASVVCLLNNFYPREAKVQWKVDNALQSGNSQESVTEQDSKDSTYSLSSTLTLSKADYEKHKVYACEVTHQGLSSPVTKSFNRGEC
notes: 18F4.2C8 (outer) - short linker - 1B12.4H4 (inner), a-b-C orientation
For B6, in the test with recombinant human IL-1α [2], the “Potency (IC50) M, MRC-5 bioassay” value was determined as 750 pM. Further, the equilibrium dissociation constant (Kd) with recombinant human IL-1β [3] amounted to 63.7 nM; with recombinant human IL-1α [4] it was 0.837 nM.

B7: hIL-1α/β DVD6b-Ig (bispecific antibody, human IgG1, kappa)
heavy: not shown
light: QIVLTQSPAIMSASPGEKVTITCSASSSVSYMHWFQQKPGASPKLWIYSTSNLASGVPARFSGSGSGTSYSLTVSRMEAEDAATYYCQQRSTYPYTFGGGTKLEIKRTVAAPSVFIFPPQIVLTQSPALMSASPGEKVTMTCSASSSVNYMYWYQQKPRSSPKPWIYLTSNLASGVPARFSGSGSGTSYSLTISSMEAEDAATYYCQQWNSNPYTFGGGTKLEMKRRTVAAPSVFIFPPSDEQLKSGTASVVCLLNNFYPREAKVQWKVDNALQSGNSQESVTEQDSKDSTYSLSSTLTLSKADYEKHKVYACEVTHQGLSSPVTKSFNRGEC
notes: 6B12.4F6 (outer) - long linker - 6H3.1A4.3E11 (inner), b-a-C orientation
B7: the “Potency (IC50) M, MRC-5 bioassay” value with recombinant human IL-1β [1] was determined as 750 pM; in the test with recombinant human IL-1α [2], 1000 pM. The results for the Kd with recombinant human IL-1β [3] and with recombinant human IL-1α [4] were 0.697 nM and 0.82 nM, respectively.

B8: hIL-1α/β DVD6a-Ig (bispecific antibody, human IgG1, kappa)
heavy: not shown
light: QIVLTQSPALMSASPGEKVTMTCSASSSVNYMYWYQQKPRSSPKPWIYLTSNLASGVPARFSGSGSGTSYSLTISSMEAEDAATYYCQQWNSNPYTFGGGTKLEMKRTVAAPSVFIFPPQIVLTQSPAIMSASPGEKVTITCSASSSVSYMHWFQQKPGASPKLWIYSTSNLASGVPARFSGSGSGTSYSLTVSRMEAEDAATYYCQQRSTYPYTFGGGTKLEIKRRTVAAPSVFIFPPSDEQLKSGTASVVCLLNNFYPREAKVQWKVDNALQSGNSQESVTEQDSKDSTYSLSSTLTLSKADYEKHKVYACEVTHQGLSSPVTKSFNRGEC
notes: 6H3.1A4.3E11 (outer) - long linker - 6B12.4F6 (inner), a-b-C orientation
Turning to B8, the results for the “Potency (IC50) M, MRC-5 bioassay” value in the test with recombinant human IL-1β [1] and with recombinant human IL-1α [2] were 70000 pM and 2300 pM, respectively. Also, the Kd in the test with recombinant human IL-1β [3] worked out at 2.09 nM; with recombinant human IL-1α [4], 1.06 nM.

B9: hIL-1α/β DVD5a-Ig (bispecific antibody, human IgG1, kappa)
heavy: not shown
light: QIVLTQSPALMSASPGEKVTMTCSASSSVNYMYWYQQKPRSSPKPWIYLTSNLASGVPARFSGSGSGTSYSLTISSMEAEDAATYYCQQWNSNPYTFGGGTKLEMKRTVAAPQIVLTQSPAIMSASPGEKVTITCSASSSVSYMHWFQQKPGASPKLWIYSTSNLASGVPARFSGSGSGTSYSLTVSRMEAEDAATYYCQQRSTYPYTFGGGTKLEIKRTVAAPSVFIFPPSDEQLKSGTASVVCLLNNFYPREAKVQWKVDNALQSGNSQESVTEQDSKDSTYSLSSTLTLSKADYEKHKVYACEVTHQGLSSPVTKSFNRGEC
notes: 6H3.1A4.3E11 (outer) - short linker - 6B12.4F6 (inner), a-b-C orientation
As for B9, the “Potency (IC50) M, MRC-5 bioassay” value in the test with recombinant human IL-1β [1] amounted to 19000 pM; with recombinant human IL-1α [2] it was 2600 pM. Besides, the values for the Kd in the test with recombinant human IL-1β [3] and in the test with recombinant human IL-1α [4] were 12.5 nM and 0.508 nM, respectively.

B10: murine monoclonal antibody 1B12.4H4 (antibody, V domains shown)
VH: QVHLKESGPGLVAPSQSLSITCTVSGFSLTDYGVSWIRQPPGKGLEWLGLIWGGGDTYYNSPLKSRLSIRKDNSKSQVFLKMNSLQTDDTAVYYCAKQRTLWGYDLYGMDYWGQGTSVTVSS
VL: ETTVTQSPASLSMAIGEKVTIRCITSTDIDVDMNWYQQKPGEPPKLLISQGNTLRPGVPSRFSSSGSGTDFVFIIENMLSEDVADYYCLQSDNLPLTFGAGTKLELKR
notes: as for B5
Take B10: the “IC50 (M), MRC-5 bioassay” value with recombinant human IL-1β [1] amounted to 6e-10 M. Besides, the “IC50 (M), MRC-5 bioassay (inhibition of IL-8 production)” value with recombinant human IL-1β [5] came out at 5.3e-10 M. In addition, the dissociation constant Kd was 0.213 nM with recombinant human IL-1β [6] and 0.261 nM with recombinant human IL-1β [3].
